Experimental data: the supplement of paper PMC7125110
± gives the standard error. Variants at the floor of the assay were thinned out.

B1: glmS ribozyme (parent)
chain: AUAAAAGCGCCAGAACUACAGAAAUGUAGUUGACGAGGAGGAGGUUUAUCGAAUUUUCGGCGGAUGCCUCCAAA

Variants of: B1
Test: self-cleavage kobs at 10000 uM GlcN6P; higher = faster cleavage; RNA array
Settings: with glucosamine-6-phosphate
Procedure, shortened: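 Using a hybridised Cy3 probe at 37 °C, barcoded ribozyme variants transcribed in situ by E. coli RNA polymerase on sequenced MiSeq chips were monitored across tiles imaged over ~14 h. The flow contained glucosamine-6-phosphate from 40 μM to 10 mM in HEPES/KCl/Mg(OAc)2 buffer. Signals were normalised to baseline and to non-cleaving reference variants before per-tile medians were fit to one- or two-exponential decays to yield kobs. Weighted Michaelis–Menten fits across concentrations gave kcat and KM.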

Variant	self-cleavage kobs at 10000 uM GlcN6P [s⁻¹]
A14U A53U C68G	5.14e-05 ± 1.1e-05
A12C C16U A53C G63A	< 1e-05
A12C A42C G59C	< 1e-05
C8G C16U C68A	< 1e-05
A12G A42G A52G	2.4e-05 ± 1.2e-05
C8U C61U C68G	0.000133 ± 4.3e-05
G7A U30G A33G U69G	0.000162 ± 2.9e-05
A15U G43A A64U C68G	< 1e-05
A15G A53U U69G	5.88e-05 ± 1.8e-05
G9U G13A U55G	< 1e-05
A6U G59A U69G	< 1e-05
A15U C58U G59U	< 1e-05
C11U U57C	5.06e-05 ± 1.6e-05
C16G U45G U46A	0.000584 ± 0.00015
C11U C34A G43C	< 1e-05
A14G A39G G44C C68U	3.6e-05 ± 1.5e-05
A12G A14U C58A	0.000276 ± 5.2e-05
G9A C16G G51A G60U	< 1e-05
A12C U49A G66C C71U	< 1e-05
A6U U47G C50A	< 1e-05
G13U A15U G62A C68A C70G	< 1e-05

Variant	self-cleavage kobs at 10000 uM GlcN6P [s⁻¹]
G29C G32U C70A	0.000104 ± 2.2e-05
A15C G44A A53G	5.76e-05 ± 1.5e-05
C11A A52G	3.16e-05 ± 9.6e-06
C8A C50G U54G C68U	6.41e-05 ± 2.3e-05
C16G G32C G43U U47G U56A	< 1e-05
C16G U45C C67G	0.000811 ± 0.00018
G7U A42U C67G	< 1e-05
C11A A12C U31C U49A	< 1e-05
A14U A15C C68U	6.11e-05 ± 2e-05
G13A G32C U69G	5.76e-05 ± 2.1e-05
A15G U46G C67G	0.000339 ± 6e-05
A15C U31A G38C G41C	< 1e-05
U30C G44U C58G	< 1e-05
A12U G29C U46A	0.000658 ± 0.00018
A12U G41A U54C	0.000963 ± 0.00021
G13C A36G G51A U55A	< 1e-05
C16A U31G C67U	6.54e-05 ± 1.4e-05
G7C G32C G41C	< 1e-05
C8U G32C A36C G38C	< 1e-05
C16A G43A G44A A48U	< 1e-05
A14G C16A G29C A53G	0.000885 ± 0.00021

Variant	self-cleavage kobs at 10000 uM GlcN6P [s⁻¹]
G7A A53G	3.18e-05 ± 9.4e-06
G13U U31G A64G	0.00021 ± 5.2e-05
G9A A36U U45A A64C	< 1e-05
A14U A52C U57A C71U	< 1e-05
C11A U69G C71G	4.63e-05 ± 1.5e-05
C16G C50A U56C U69G	< 1e-05
C11G A36C G37C U46G G60A	< 1e-05
A14G G37C U45A U49C G59U	< 1e-05
A12U U31G U55C U65A	0.0008 ± 0.00013
A14G C34A G38A C67A	< 1e-05
A14G U49G U55C	0.00199 ± 0.00057
C10A C50U G59A	< 1e-05
G9U A12G G37U	< 1e-05
G29U U56C	0.000483 ± 0.00016
G13U G44U U45G C58A C71G	< 1e-05
C11U A48G C50U C71U	< 1e-05
U30C A36C U49A	< 1e-05
C11A G44U C67U	4.33e-05 ± 2.1e-05
A12G C58A C70G	3.02e-05 ± 1.3e-05
A12G U46A C71G	3.42e-05 ± 1.3e-05
A14U U45G C61U	< 1e-05

Variant	self-cleavage kobs at 10000 uM GlcN6P [s⁻¹]
C11A A15G U57A G62U	< 1e-05
C11A U54G A64G U69G	9.78e-05 ± 2.2e-05
A14C G44C A52C U65A	< 1e-05
U30A G38C	< 1e-05
G7U A12G G35A A39G U49A C67A	< 1e-05
G13A A36C G38U	< 1e-05
A12C A52U C67G	0.000146 ± 3.5e-05
C16U A53U U65G	0.00246 ± 0.00058
G7A U30G G41A C70A	< 1e-05
A12U A42U C70U	0.00014 ± 3.1e-05
G7U G29U G32A A42U U55C G62C	< 1e-05
C8G A15G G37C U49G	< 1e-05
A14U U30G U31C	0.000695 ± 0.00016
G9C A39U A42U	< 1e-05
G9U A42U U55G	< 1e-05
C10A A36U A39U	< 1e-05
C11A G13U A53G C67U C68G	3.78e-05 ± 1.7e-05
A15G U49G G60A	< 1e-05
A14C U57A C67A	3.08e-05 ± 1.4e-05
G9A U56C C58G	< 1e-05
C11U C34G G51A A52U C68G	0.000563 ± 0.00022
